Earlier results on 1 substance are cited in PMC4448172.

The target in this data set is KV1.3 (UniProt P22001).
Sequence of UniProt P22001 (P22001 whole entry): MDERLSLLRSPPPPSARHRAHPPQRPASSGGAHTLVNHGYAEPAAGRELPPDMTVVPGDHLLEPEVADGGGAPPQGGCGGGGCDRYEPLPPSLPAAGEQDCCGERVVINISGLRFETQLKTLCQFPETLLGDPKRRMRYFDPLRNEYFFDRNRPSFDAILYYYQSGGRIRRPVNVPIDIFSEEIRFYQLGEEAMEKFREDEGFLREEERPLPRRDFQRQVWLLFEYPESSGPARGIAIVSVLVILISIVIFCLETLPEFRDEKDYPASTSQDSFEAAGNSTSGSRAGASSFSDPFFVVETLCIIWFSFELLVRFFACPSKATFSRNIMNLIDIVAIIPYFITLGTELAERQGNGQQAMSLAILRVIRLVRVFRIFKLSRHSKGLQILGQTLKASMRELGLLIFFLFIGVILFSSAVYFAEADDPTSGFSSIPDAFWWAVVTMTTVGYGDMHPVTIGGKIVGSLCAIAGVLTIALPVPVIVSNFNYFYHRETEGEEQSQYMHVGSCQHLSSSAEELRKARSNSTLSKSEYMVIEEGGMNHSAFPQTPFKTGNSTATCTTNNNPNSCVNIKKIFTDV

ShK (from UniProt P29187): the Kd is 0.011 nM.

One may read the Kd as a measure of binding affinity in units of concentration.
